Reference: article PMC6748948, “A Bone Morphogenetic Protein (BMP)-derived Peptide Based on the Type I Receptor-binding Site Modifies Cell-type Dependent BMP Signalling” (Scientific Reports, 2019)

Biological target: Peptide P3* (BMP9-based peptide from the ALK1-binding site, biotinylated at the N-terminus) (UniProt Q9UK05)
Assay: SPR; Biacore T200; biotinylated P3* immobilised on streptavidin (SA) chip; ALK1-Fc flowed over, injection 4 min, otherwise as for the CM5 assays; steady-state fit

Chain of ALK1-Fc (activin receptor like kinase 1, Fc fusion) (P37023 22-118): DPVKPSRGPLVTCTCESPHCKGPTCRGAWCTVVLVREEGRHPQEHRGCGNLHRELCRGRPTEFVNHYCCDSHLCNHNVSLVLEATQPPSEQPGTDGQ
Chain of Peptide P3* (BMP9-based peptide from the ALK1-binding site, biotinylated at the N-terminus) (Q9UK05 320-429): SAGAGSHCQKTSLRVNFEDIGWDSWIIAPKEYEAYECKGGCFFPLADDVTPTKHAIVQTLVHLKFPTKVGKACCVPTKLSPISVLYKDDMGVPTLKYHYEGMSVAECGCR

Kd: 30 mM
Substance: ALK1-Fc (activin receptor like kinase 1, Fc fusion) (from UniProt P37023 22-118)
